Experiment [1] deals with human neonatal Fc receptor (FcRn), heterodimer of alpha-FcRn and beta2 microglobulin (human) (UniProt P55899). As to the kind of experiment: FcRn affinity chromatography.
For experiment [2] the target is unchanged. As to the kind of experiment: SPR. In general terms: In SPR one partner is held on a chip, and binding of the other changes the refractive index at the surface.

Sequence of UniProt P55899 (P55899 24-365, chain 1 of 2): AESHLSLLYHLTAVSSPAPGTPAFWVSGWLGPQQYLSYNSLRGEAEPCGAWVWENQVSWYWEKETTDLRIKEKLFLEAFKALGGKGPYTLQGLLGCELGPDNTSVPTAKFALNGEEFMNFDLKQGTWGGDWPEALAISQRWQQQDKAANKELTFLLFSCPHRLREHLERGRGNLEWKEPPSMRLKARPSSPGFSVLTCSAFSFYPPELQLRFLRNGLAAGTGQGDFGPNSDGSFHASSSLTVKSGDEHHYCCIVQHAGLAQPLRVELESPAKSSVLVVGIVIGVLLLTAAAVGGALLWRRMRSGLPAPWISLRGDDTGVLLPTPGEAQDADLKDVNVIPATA
Sequence of UniProt P55899 (P61769 21-119, chain 2 of 2, further chain): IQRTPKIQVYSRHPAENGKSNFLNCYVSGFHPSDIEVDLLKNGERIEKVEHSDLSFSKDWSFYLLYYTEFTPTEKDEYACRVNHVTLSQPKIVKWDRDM

As for “IdeS-cleaved Fc region of briakinumab (domain or fragment)”, the FcRn column retention time in experiment [1] is 85.7 min. Turning to “IdeS-cleaved Fc region of ustekinumab (domain or fragment)”, in experiment [1], the FcRn column retention time was found to be 85.2 min. With briakinumab (antibody), in experiment [1], the FcRn column elution pH was 7.9 pH and the FcRn column retention time was 93.7 min. With “mAb 1 (ustekinumab Fv + briakinumab constant domains) (antibody)”, the Rel. KD (KD normalised to the KD of ustekinumab) in experiment [2] worked out at 1. In addition, the FcRn column retention time in experiment [1] came out at 84.3 min. “mAb 3 (ustekinumab HC + briakinumab LC) (from UniProt P01857 2-107) (antibody)” had a FcRn column retention time in experiment [1] of 92.4 min.

“mAb 5 (ustekinumab CDRs on briakinumab) (antibody)”: in experiment [2], the Rel. KD (KD normalised to the KD of ustekinumab) is 0.9. This substance returned a FcRn column retention time in experiment [1] of 85.1 min.

(Values after paper PMC4434771.)
